Data on 22 substances can be found in patent publication US20190142860A1, “NUCLEIC ACID BASED TIA-1 INHIBITORS” (Aquinnah Pharmaceuticals, Inc., priority 2015, published 2019).

The target in experiment [1] is Nucleolysin TIA-1 (endogenous mouse TIA1) (mouse) (UniProt P52912). Put plainly: TIA1 IP-MS, tau KO 3 cortex.
Experiment [2] shares this target. The experiment in a line: TIA1 IP-MS, tau KO 1 cortex.
The target is the same in experiment [3]. Put plainly: TIA1 IP-MS, tau KO 2 cortex.
Experiment [4] has the same target. The experiment in a line: TIA1 IP-MS, WT2 cortex.
The target is the same in experiment [5]. Put plainly: TIA1 IP-MS, WT3 cortex.
Experiment [6] shares this target. The experiment in a line: TIA1 IP-MS, WT1 cortex.

Sequence of UniProt P52912 (P52912 whole entry): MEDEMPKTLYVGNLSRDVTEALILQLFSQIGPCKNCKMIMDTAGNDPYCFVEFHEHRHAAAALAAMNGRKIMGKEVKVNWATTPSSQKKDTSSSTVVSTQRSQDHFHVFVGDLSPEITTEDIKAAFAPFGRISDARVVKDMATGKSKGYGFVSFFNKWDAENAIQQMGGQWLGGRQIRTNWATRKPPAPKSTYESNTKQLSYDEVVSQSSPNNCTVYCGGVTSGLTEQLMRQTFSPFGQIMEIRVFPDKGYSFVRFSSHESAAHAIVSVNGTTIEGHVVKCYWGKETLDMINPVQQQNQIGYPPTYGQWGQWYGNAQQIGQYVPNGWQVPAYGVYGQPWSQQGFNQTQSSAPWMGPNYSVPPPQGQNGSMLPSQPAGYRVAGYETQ

With “Succinyl-CoA ligase [ADP/GDP-forming] subunit alpha, mitochondrial (from UniProt Q9WUM5 35-346)”, the total ion current (normalized to TIA1 = 1000) in experiment [1] came out at 0; in experiment [2] it was 0; in experiment [3], 26.9; in experiment [4], 204; in experiment [5], 54.8; in experiment [6], 0.

For the substance “Hypoxanthine-guanine phosphoribosyltransferase (from UniProt P00493 1-218)”, the total ion current (normalized to TIA1 = 1000) in experiment [1] amounted to 0; in experiment [2], 0; in experiment [3], 54.1; in experiment [4], 21; in experiment [5] it was 0; in experiment [6], 0.

As for Syntaxin-1B (from UniProt P61264 1-288), the total ion current (normalized to TIA1 = 1000) in experiment [1] stood at 0; in experiment [2] it was 0; in experiment [3], 26.9; in experiment [4], 99.7; in experiment [5] it was 0; in experiment [6] it was 0.

In the case of “Cleavage and polyadenylation specificity factor subunit 6 (from UniProt Q6NVF9 1-551)”, the total ion current (normalized to TIA1 = 1000) in experiment [1] stood at 0; in experiment [2] it was 0; in experiment [3], 76.2; in experiment [4], 147; in experiment [5] it was 0; in experiment [6] it was 0.

Take “Isoform 2 of Gelsolin (from UniProt P13020 1-731)”: the total ion current (normalized to TIA1 = 1000) in experiment [1] is 0; in experiment [2], 144; in experiment [3], 0; in experiment [4], 0; in experiment [5], 0; in experiment [6] it was 0.

Turning to Septin-5 (from UniProt Q9Z2Q6 1-369), the total ion current (normalized to TIA1 = 1000) came out at 0 in experiment [1]; 0 in experiment [2]; 85.5 in experiment [3]; 194 in experiment [4]; 114 in experiment [5]; 0 in experiment [6].

Take “RNA-binding protein EWS (from UniProt Q61545 1-655)”: the total ion current (normalized to TIA1 = 1000) came out at 0 in experiment [1]; 0 in experiment [2]; 0 in experiment [3]; 32.5 in experiment [4]; 0 in experiment [5]; 6.73 in experiment [6].

As to “39S ribosomal protein L46, mitochondrial (from UniProt Q9EQI8 1-283)”, the total ion current (normalized to TIA1 = 1000) in experiment [1] was determined as 0; in experiment [2] it was 0; in experiment [3], 0; in experiment [4], 52.7; in experiment [5], 0; in experiment [6], 0.

As for “Malate dehydrogenase, cytoplasmic (from UniProt P14152 2-334)”, the total ion current (normalized to TIA1 = 1000) came to 0 in experiment [1]; 0 in experiment [2]; 81.6 in experiment [3]; 189 in experiment [4]; 31.7 in experiment [5]; 0 in experiment [6].

With “Putative adenosylhomocysteinase 3 (from UniProt Q68FL4 2-613)”, the total ion current (normalized to TIA1 = 1000) stood at 0 in experiment [1]; 8.48 in experiment [2]; 72.5 in experiment [3]; 76.3 in experiment [4]; 45.1 in experiment [5]; 2.62 in experiment [6].

Take “Isoform 2 of Heterogeneous nuclear ribonucleoprotein F (from UniProt Q9Z2X1 1-395)”: the total ion current (normalized to TIA1 = 1000) in experiment [1] was 0; in experiment [2], 0; in experiment [3] it was 39.6; in experiment [4], 42.5; in experiment [5], 48.2; in experiment [6] it was 0.

“Isoform 2 of Heterogeneous nuclear ribonucleoprotein Q (from UniProt Q7TMK9 2-562)”: the total ion current (normalized to TIA1 = 1000) in experiment [1] is 0; in experiment [2], 19.8; in experiment [3] it was 48.5; in experiment [4], 249; in experiment [5], 0; in experiment [6], 14.7.

On to “Glutathione S-transferase Mu 1 (from UniProt P10649 2-218)”, for which the total ion current (normalized to TIA1 = 1000) in experiment [1] was 0; in experiment [2], 0; in experiment [3], 91.1; in experiment [4] it was 286; in experiment [5] it was 57.4; in experiment [6], 0.

With “Cluster of Ras-related protein Rab-5C (from UniProt P35278 1-216)”, the total ion current (normalized to TIA1 = 1000) in experiment [1] is 0; in experiment [2], 0; in experiment [3], 213; in experiment [4] it was 210; in experiment [5] it was 337; in experiment [6], 0.

Take “Isoform Beta-II of Protein kinase C beta type (from UniProt P68404 2-673)”: the total ion current (normalized to TIA1 = 1000) in experiment [1] worked out at 0; in experiment [2] it was 0; in experiment [3], 13; in experiment [4], 148; in experiment [5], 0; in experiment [6], 0.

Regarding Coronin-1A (from UniProt O89053 2-461), the total ion current (normalized to TIA1 = 1000) in experiment [1] was found to be 0; in experiment [2], 0; in experiment [3] it was 31; in experiment [4], 74.2; in experiment [5], 0; in experiment [6], 0.

For “Calcium-binding mitochondrial carrier protein Aralar1 (from UniProt Q8BH59 2-677)”, the total ion current (normalized to TIA1 = 1000) was determined as 0 in experiment [1]; 0 in experiment [2]; 231 in experiment [3]; 181 in experiment [4]; 21.6 in experiment [5]; 0 in experiment [6].

On to “Proteasome subunit alpha type-4 (from UniProt Q9R1P0 1-261)”, for which the total ion current (normalized to TIA1 = 1000) in experiment [1] turned out to be 0; in experiment [2], 0; in experiment [3], 0; in experiment [4], 0; in experiment [5], 0; in experiment [6], 10.5.

With “Puromycin-sensitive aminopeptidase (from UniProt Q11011 1-920)”, the total ion current (normalized to TIA1 = 1000) in experiment [1] worked out at 0; in experiment [2] it was 0; in experiment [3] it was 0; in experiment [4], 0; in experiment [5], 49.8; in experiment [6], 0.

Regarding “Isocitrate dehydrogenase [NAD] subunit alpha, mitochondrial (from UniProt Q9D6R2 28-366)”, the total ion current (normalized to TIA1 = 1000) was 0 in experiment [1]; 0 in experiment [2]; 155 in experiment [3]; 186 in experiment [4]; 138 in experiment [5]; 0 in experiment [6].

As to “Clathrin light chain A (from UniProt O08585 1-235)”, the total ion current (normalized to TIA1 = 1000) in experiment [1] is 0; in experiment [2] it was 0; in experiment [3], 29; in experiment [4], 90.8; in experiment [5] it was 145; in experiment [6], 0.

Regarding “Isoform Mt-VDAC1 of Voltage-dependent anion-selective channel protein 1 (from UniProt Q60932 2-283)”, the total ion current (normalized to TIA1 = 1000) in experiment [1] came out at 0; in experiment [2], 0; in experiment [3], 0; in experiment [4] it was 184; in experiment [5], 101; in experiment [6], 0.
